Reference: article PMC9482650, “Quantitative fragmentomics allow affinity mapping of interactomes” (Nature Communications, 2022)

Legend:
Experiment in all cases: holdup assay
Set-up in all cases: key: below the threshold = too weak to quantify, mostly under pKd 3.1 to 4
GRIP1_7, Q9Y3R0 = target: T1, GRIP1_7, Q9Y3R0
T1 sequence (Q9Y3R0 999-1096, limits assumed, looked up): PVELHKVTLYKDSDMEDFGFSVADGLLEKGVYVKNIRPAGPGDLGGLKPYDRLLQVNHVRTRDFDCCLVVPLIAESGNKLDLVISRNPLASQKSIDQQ

GORASP2, Q9H8Y8 = target: GORASP2, Q9H8Y8
SNX27, Q96L92 = target: SNX27, Q96L92
NHERF4_1, Q86UT5-2 = target: NHERF4_1, Q86UT5-2
NHERF4_1, Q86UT5-2, sequence (Q86UT5 other isoform, or with tags, fused parts or gaps): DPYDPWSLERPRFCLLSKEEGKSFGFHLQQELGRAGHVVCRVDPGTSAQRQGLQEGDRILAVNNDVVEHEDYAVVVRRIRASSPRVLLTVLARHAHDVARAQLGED

PTPN3, P26045 = target: PTPN3, P26045
PTPN3, P26045, sequence (P26045 505-587): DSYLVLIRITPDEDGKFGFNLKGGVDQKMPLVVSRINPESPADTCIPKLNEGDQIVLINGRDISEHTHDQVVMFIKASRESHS

GRID2IP_2, A4D2P6 = target: GRID2IP_2, A4D2P6
GRID2IP_2, A4D2P6, sequence (A4D2P6 272-370): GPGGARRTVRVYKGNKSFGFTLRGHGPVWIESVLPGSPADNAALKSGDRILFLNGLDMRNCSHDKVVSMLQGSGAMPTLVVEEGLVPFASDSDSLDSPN

DFNB31_1, Q9P202 = target: T2, DFNB31_1, Q9P202
T2 sequence (Q9P202 135-233, limits assumed, looked up): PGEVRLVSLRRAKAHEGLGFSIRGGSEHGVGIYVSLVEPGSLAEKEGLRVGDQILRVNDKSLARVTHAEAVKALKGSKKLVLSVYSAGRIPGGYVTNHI

LDB3, O75112 = target: LDB3, O75112
LDB3, O75112, sequence (O75112 1-94): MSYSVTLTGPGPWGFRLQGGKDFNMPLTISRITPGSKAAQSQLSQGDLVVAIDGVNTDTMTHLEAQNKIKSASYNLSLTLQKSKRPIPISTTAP

GRIP1_5, Q9Y3R0 = target: T3, GRIP1_5, Q9Y3R0
T3 sequence (Q9Y3R0 568-668, limits assumed, looked up): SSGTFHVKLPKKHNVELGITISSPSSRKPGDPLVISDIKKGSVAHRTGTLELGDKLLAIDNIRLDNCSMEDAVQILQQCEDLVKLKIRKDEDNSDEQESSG

LNX2_3, Q8N448 = target: T4, LNX2_3, Q8N448
T4 sequence (Q8N448 463-564, limits assumed, looked up): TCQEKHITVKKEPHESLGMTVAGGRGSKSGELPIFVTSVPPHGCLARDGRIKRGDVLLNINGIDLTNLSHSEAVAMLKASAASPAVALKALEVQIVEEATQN

DLG3_3, Q92796 = target: T5, DLG3_3, Q92796
T5 sequence (Q92796 374-475, limits assumed, looked up): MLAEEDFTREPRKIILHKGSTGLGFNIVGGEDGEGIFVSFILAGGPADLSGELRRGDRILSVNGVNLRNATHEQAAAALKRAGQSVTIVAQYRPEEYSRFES

PARD3B_1, Q8TEW8 = target: T6, PARD3B_1, Q8TEW8
T6 sequence (Q8TEW8 196-299, limits assumed, looked up): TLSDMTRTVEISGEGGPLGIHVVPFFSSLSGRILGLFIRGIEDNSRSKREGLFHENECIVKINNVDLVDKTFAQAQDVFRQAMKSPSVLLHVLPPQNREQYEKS

GRIP1_2, Q9Y3R0 = target: T7, GRIP1_2, Q9Y3R0
T7 sequence (Q9Y3R0 145-248, limits assumed, looked up): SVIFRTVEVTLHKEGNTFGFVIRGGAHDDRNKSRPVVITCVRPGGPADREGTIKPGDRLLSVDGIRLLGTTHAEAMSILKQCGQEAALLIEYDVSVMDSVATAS

MPDZ_12, O75970 = target: T8, MPDZ_12, O75970
T8 sequence (O75970 1857-1958, limits assumed, looked up): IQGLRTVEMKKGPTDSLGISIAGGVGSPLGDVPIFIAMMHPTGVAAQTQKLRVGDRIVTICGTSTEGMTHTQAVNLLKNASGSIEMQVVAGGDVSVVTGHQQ

ARHGAP21, Q5T5U3 = target: T9, ARHGAP21, Q5T5U3
T9 sequence (Q5T5U3 45-169, limits assumed, looked up): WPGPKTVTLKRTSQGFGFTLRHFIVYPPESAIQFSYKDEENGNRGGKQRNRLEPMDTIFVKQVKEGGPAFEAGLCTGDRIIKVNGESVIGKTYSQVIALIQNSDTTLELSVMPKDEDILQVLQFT

RHPN1, Q8TCX5 = target: T10, RHPN1, Q8TCX5
T10 sequence (Q8TCX5 508-602, limits assumed, looked up): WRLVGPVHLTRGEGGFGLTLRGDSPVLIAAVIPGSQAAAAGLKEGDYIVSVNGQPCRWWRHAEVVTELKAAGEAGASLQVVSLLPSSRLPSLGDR

FRMPD2_1, Q68DX3 = target: FRMPD2_1, Q68DX3
FRMPD2_1, Q68DX3, sequence (Q68DX3 770-861): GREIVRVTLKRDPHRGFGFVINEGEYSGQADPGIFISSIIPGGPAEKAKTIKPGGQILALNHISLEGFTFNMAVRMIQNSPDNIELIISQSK

DLG3_1, Q92796 = target: T11, DLG3_1, Q92796
T11 sequence (Q92796 125-227, limits assumed, looked up): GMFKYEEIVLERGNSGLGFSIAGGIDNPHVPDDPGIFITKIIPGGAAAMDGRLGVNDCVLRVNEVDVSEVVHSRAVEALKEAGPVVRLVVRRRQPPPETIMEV

GRID2IP_1, A4D2P6 = target: GRID2IP_1, A4D2P6
GRID2IP_1, A4D2P6, sequence (A4D2P6 1-87): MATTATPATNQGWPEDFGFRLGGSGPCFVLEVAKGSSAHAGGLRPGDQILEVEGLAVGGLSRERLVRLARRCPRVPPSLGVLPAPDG

HTRA1, Q92743 = target: HTRA1, Q92743
HTRA1, Q92743, sequence (Q92743 360-477): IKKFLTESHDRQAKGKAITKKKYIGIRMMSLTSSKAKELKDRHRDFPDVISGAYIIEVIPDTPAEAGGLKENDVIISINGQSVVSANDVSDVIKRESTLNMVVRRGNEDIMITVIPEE

IL16_3, Q14005 = target: IL16_3, Q14005
IL16_3, Q14005, sequence (Q14005 1107-1207): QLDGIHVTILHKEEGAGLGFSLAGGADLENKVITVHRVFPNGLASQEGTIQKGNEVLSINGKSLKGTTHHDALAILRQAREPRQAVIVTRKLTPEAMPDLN

DLG4_1, P78352 = target: DLG4_1, P78352
DLG4_1, P78352, sequence (P78352 62-152): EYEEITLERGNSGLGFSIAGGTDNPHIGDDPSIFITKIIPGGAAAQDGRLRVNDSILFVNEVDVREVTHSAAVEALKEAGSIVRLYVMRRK

TJP3_3, O95049 = target: T12, TJP3_3, O95049
T12 sequence (O95049 375-456, limits assumed, looked up): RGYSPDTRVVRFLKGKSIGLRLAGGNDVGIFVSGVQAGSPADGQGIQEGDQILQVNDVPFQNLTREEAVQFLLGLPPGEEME

Inadl_5, Q8NI35 = target: Inadl_5, Q8NI35
Inadl_5, Q8NI35, sequence (Q8NI35 673-780): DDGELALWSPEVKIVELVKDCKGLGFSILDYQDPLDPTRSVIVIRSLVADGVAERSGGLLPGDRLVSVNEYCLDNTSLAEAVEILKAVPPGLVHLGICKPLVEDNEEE

LIMK2, P53671 = target: LIMK2, P53671
LIMK2, P53671, sequence (P53671 143-248): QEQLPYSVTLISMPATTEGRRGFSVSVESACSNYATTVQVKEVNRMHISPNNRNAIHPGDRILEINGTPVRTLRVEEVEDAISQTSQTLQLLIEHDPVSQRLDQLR

[1] = plain residues with an end cap or a label only (N-terminal biotin on a linker: ahx)
[2] = plain residues with an end cap or a label only (N-terminal biotin on a linker: ttds)

Measured: pKd

B1: PDLIM2, Q96JY6 (peptide)
chain: SAPATLSSRA
below the threshold: GRIP1_7, Q9Y3R0; [1] | GORASP2, Q9H8Y8; [1] | SNX27, Q96L92; [1] | NHERF4_1, Q86UT5-2; [1] | PTPN3, P26045; [1] | GRID2IP_2, A4D2P6; [1] | DFNB31_1, Q9P202; [1] | LDB3, O75112; [1] | GRIP1_5, Q9Y3R0; [1] | LNX2_3, Q8N448; [1] | DLG3_3, Q92796; [1] | PARD3B_1, Q8TEW8; [1] | GRIP1_2, Q9Y3R0; [1] | MPDZ_12, O75970; [1] | ARHGAP21, Q5T5U3; [1] | RHPN1, Q8TCX5; [1] | FRMPD2_1, Q68DX3; [1] | DLG3_1, Q92796; [1] | GRID2IP_1, A4D2P6; [1] | HTRA1, Q92743; [1] | IL16_3, Q14005; [1] | DLG4_1, P78352; [1] | TJP3_3, O95049; [1] | Inadl_5, Q8NI35; [1] | LIMK2, P53671; [1]

B2: NET1, Q7Z628 (peptide)
chain: SGGKRKETLV
3.65: RHPN1, Q8TCX5; [2]
4.61: DLG3_1, Q92796; [2]
5.21: DLG4_1, P78352; [2]
5.05: DLG3_3, Q92796; [2]
3.56: GRID2IP_2, A4D2P6; [2]
3.52: PARD3B_1, Q8TEW8; [2]
3.95: FRMPD2_1, Q68DX3; [2]
4.66: PTPN3, P26045; [2]
4.33: SNX27, Q96L92; [2]
4.03: GORASP2, Q9H8Y8; [2]
below the threshold: GRIP1_7, Q9Y3R0; [2] | NHERF4_1, Q86UT5-2; [2] | DFNB31_1, Q9P202; [2] | LDB3, O75112; [2] | GRIP1_5, Q9Y3R0; [2] | LNX2_3, Q8N448; [2] | GRIP1_2, Q9Y3R0; [2] | MPDZ_12, O75970; [2] | ARHGAP21, Q5T5U3; [2] | GRID2IP_1, A4D2P6; [2] | HTRA1, Q92743; [2] | IL16_3, Q14005; [2] | TJP3_3, O95049; [2] | LIMK2, P53671; [2]
3.78: Inadl_5, Q8NI35; [2]

B3: RAPGEF6, Q8TEU7 (peptide)
chain: ADENEQVSAV
4.3: PTPN3, P26045; [1]
5.07: SNX27, Q96L92; [1]
below the threshold: GRIP1_7, Q9Y3R0; [1] | GORASP2, Q9H8Y8; [1] | NHERF4_1, Q86UT5-2; [1] | DFNB31_1, Q9P202; [1] | LDB3, O75112; [1] | GRIP1_5, Q9Y3R0; [1] | LNX2_3, Q8N448; [1] | DLG3_3, Q92796; [1] | PARD3B_1, Q8TEW8; [1] | GRIP1_2, Q9Y3R0; [1] | MPDZ_12, O75970; [1] | ARHGAP21, Q5T5U3; [1] | FRMPD2_1, Q68DX3; [1] | DLG3_1, Q92796; [1] | GRID2IP_1, A4D2P6; [1] | IL16_3, Q14005; [1] | TJP3_3, O95049; [1] | Inadl_5, Q8NI35; [1] | LIMK2, P53671; [1]
4.19: GRID2IP_2, A4D2P6; [1]
3.6: DLG4_1, P78352; [1]
3.94: HTRA1, Q92743; [1]
4.42: RHPN1, Q8TCX5; [1]

B4: FAT3, Q8TDW7 (peptide)
chain: FVETQHQTQV
4.32: RHPN1, Q8TCX5; [2]
below the threshold: GRIP1_7, Q9Y3R0; [2] | GORASP2, Q9H8Y8; [2] | NHERF4_1, Q86UT5-2; [2] | LDB3, O75112; [2] | GRIP1_5, Q9Y3R0; [2] | LNX2_3, Q8N448; [2] | PARD3B_1, Q8TEW8; [2] | MPDZ_12, O75970; [2] | ARHGAP21, Q5T5U3; [2] | FRMPD2_1, Q68DX3; [2] | GRID2IP_1, A4D2P6; [2] | HTRA1, Q92743; [2] | IL16_3, Q14005; [2] | TJP3_3, O95049; [2] | Inadl_5, Q8NI35; [2] | LIMK2, P53671; [2]
3.58: DLG3_3, Q92796; [2]
4.53: SNX27, Q96L92; [2]
3.48: DFNB31_1, Q9P202; [2]
3.85: DLG3_1, Q92796; [2]
3.51: GRIP1_2, Q9Y3R0; [2]
4.36: DLG4_1, P78352; [2]
4.12: PTPN3, P26045; [2]
3.59: GRID2IP_2, A4D2P6; [2]
